The record followed here is PMC1919475.

The target of assay [1] is Cockayne syndrome B (CSB) protein, full-length, purified recombinant (human) (UniProt Q03468). In words: ELISA. Background: ELISA stands for enzyme-linked immunosorbent assay.
Assay [2] deals with APE1, endogenous in ECFP-CSB-CS1AN cell extracts (human (endogenous in CS1AN fibroblasts)) (UniProt P27695). The assay is described as follows: co-IP.
The target of assay [3] is APE1, major human apurinic/apyrimidinic (AP) endonuclease, full-length, purified recombinant (human) (UniProt P27695). The assay is described as follows: ELISA.
The target in assay [4] is ECFP-CSB expressed in CS1AN.S3.G2 cells (human) (UniProt Q03468). In words: co-IP.

For orientation: EC50 means the midpoint of the concentration-response curve. “APE1, major human apurinic/apyrimidinic (AP) endonuclease, full-length, purified recombinant (from UniProt P27695 1-318) (enzyme)”: in assay [1], the EC50 is above 0.02 µM.

On to “ECFP-CSB expressed in CS1AN.S3.G2 cells (from UniProt Q03468 1-1493) (natural protein)”, for which the percent co-immunoprecipitated in assay [2] fell in the range of 5 to 50%.

Take “Cockayne syndrome B (CSB) protein, full-length, purified recombinant (from UniProt Q03468 1-1493) (natural protein)”: in assay [3], the EC50 was above 0.0045 µM.

In assay [4], “APE1, endogenous in ECFP-CSB-CS1AN cell extracts (from UniProt P27695 1-318) (enzyme)” showed a percent co-immunoprecipitated of 5 to 50%.
